# Experimental data taken from paper PMC7912279 (2021).
# B1: maSES-PEG2-RM26 (peptide)
# chain: SESFQWAVGHL
# modifications: 99mTc, mercaptoacetyl-Ser-Glu-Ser-PEG2-D-Phe-Gln-Trp-Ala-Val-Gly-His-Sta-Leu-NH2
# B2: maSSS-PEG2-RM26 (peptide)
# chain: SSSFQWAVGHL
# modifications: 99mTc, mercaptoacetyl-Ser-Ser-Ser-PEG2-D-Phe-Gln-Trp-Ala-Val-Gly-His-Sta-Leu-NH2
# Assays:
# [1] = biological target: T1, gastrin-releasing peptide receptor (Homo sapiens, UniProt P30550); experiment: LigandTracer on PC-3 cells (1:2 model, KD1)
# T1 sequence (P30550 whole entry): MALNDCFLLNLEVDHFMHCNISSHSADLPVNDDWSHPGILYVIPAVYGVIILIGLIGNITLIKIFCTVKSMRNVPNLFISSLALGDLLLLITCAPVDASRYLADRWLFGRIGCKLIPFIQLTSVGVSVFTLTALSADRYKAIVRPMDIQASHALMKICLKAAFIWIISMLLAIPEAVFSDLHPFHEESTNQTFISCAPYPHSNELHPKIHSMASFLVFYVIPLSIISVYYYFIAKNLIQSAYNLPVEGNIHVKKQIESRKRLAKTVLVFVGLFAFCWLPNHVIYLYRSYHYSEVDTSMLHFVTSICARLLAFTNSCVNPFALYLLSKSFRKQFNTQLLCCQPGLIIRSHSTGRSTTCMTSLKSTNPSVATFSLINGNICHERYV
# [2] = biological target: T1, gastrin-releasing peptide receptor; experiment: LigandTracer on PC-3 cells (1:2 model, KD2)
Binder,Kd [1],Kd [2]
B1,0.849 nM,1.4 nM
B2,0.061 nM,1.2 nM
